The values below come from patent US20090081207A1 (published 2009).

Where “and” joins values, the source holds several entries; their conditions need not be identical. Identical values can stand only once.

The target in experiment [1] is T1, β1-integrin chain on HT29 wt cells (α5-chain negative) (human, UniProt P05556 21-798).
T1 construct: whole, on cells; Negative cell control: β1 present at high density, α5 absent
Briefly: FACS on HT29 wt cells, labelled secondary antibody. How it is done:
Affinity matured IgG antibodies were incubated at 10 μg/mL with 5×10⁵ HT29 wt and HT29α5 cells. Specifically bound antibodies were detected with a Cy3-labelled secondary antibody. Upper panel: IIA1 incubated with HT29 wt (left) or HT29α5-cells (right), lower panel: IgG1 MOR04974. The fluorescence shift indicates specific binding to α5 integrin and was found for MOR04975, MOR04977, MOR04985 and MOR04624 (grey area). Antibody isotype controls are negative (black lines (b)). Our anti-integrin antibodies bind to α5-chain transfected cells with the same specificity as the reference antibody IIA1.
Affinity matured antibodies of the IgG-format were tested for their binding specificity by FACS analysis on HT29 wt vs. HT29α5 cells. HT29 wt cells are α5-negative but do contain the β1-integrin chain. HT29α5 but not the HT29 wt cells are specifically recognized by the IgG1-anti-integrin antibodies and the reference antibody IIA1 as indicated by the fluorescence shift. (FIG. 12).

The target in a further experiment is human α5β1 integrin (human, UniProt P08648 42-1049; P05556 21-798). Briefly: cell-based or functional assay.
Chain of human α5β1 integrin (P08648 42-1049, chain 1 of 2): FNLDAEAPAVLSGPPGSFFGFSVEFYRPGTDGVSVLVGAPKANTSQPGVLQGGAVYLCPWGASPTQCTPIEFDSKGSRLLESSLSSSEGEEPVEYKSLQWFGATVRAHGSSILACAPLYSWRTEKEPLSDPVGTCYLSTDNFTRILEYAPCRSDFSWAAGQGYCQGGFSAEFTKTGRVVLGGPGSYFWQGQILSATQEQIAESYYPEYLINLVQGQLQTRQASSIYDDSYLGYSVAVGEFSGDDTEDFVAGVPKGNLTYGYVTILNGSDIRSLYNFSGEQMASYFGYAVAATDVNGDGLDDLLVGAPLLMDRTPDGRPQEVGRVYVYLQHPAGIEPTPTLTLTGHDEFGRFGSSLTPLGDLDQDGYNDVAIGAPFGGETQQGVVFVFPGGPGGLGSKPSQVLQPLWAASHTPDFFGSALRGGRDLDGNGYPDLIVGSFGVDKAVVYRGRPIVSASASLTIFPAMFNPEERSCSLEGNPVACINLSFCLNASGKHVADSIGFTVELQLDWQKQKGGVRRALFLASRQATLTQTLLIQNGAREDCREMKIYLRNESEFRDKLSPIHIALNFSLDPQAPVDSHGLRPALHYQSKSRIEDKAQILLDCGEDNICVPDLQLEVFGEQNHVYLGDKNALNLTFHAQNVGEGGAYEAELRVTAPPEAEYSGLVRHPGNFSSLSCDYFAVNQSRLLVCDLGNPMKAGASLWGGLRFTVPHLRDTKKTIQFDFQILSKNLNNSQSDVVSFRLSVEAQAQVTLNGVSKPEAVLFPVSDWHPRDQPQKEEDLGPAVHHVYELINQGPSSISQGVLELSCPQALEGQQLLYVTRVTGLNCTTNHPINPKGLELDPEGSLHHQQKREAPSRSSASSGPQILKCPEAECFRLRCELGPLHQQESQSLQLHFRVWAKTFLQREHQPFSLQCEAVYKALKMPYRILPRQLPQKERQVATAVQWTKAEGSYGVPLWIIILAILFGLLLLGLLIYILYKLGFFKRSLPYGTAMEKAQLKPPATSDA
Chain of human α5β1 integrin (P05556 21-798, chain 2 of 2): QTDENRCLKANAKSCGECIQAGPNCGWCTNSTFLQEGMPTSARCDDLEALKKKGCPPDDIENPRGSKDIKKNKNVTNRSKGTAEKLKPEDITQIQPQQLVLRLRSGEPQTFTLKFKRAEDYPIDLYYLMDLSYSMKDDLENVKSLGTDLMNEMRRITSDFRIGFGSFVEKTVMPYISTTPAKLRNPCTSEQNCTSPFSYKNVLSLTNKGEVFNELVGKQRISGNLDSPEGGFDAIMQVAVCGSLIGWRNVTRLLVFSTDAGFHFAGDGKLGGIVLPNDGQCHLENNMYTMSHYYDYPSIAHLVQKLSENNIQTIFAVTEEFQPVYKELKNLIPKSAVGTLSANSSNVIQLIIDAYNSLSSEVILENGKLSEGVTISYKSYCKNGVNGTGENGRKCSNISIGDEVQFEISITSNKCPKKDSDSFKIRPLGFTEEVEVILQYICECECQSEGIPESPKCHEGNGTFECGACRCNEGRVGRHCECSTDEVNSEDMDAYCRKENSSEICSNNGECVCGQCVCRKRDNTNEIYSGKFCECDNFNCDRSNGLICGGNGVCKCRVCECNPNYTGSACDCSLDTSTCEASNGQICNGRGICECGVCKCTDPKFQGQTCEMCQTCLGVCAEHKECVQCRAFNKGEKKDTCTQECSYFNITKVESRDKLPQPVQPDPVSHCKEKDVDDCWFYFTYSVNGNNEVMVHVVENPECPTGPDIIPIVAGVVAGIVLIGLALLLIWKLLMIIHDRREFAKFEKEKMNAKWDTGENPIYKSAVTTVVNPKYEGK

T1 sequence (P05556 21-798): as the sequence (P05556 21-798, chain 2 of 2) above

B1: MOR04974 IgG1 (antibody, V domains shown)
VH: QVQLVESGGGLVQPGGSLRLSCAASGFTFSSYGMSWVRQAPGKGLEWVSGIRAKQSGYATDYAAPVKGRFTISRDNSKNTLYLQMNSLRAEDTAVYYCARGLGDYGHHHGLSGIFDYWGQGTLVTVSS
VL: DIQMTQSPSSLSASVGDRVTITCRASQGISSNLNWYQQKPGKAPKLLIYAASNLQSGPSRFSGSGSGTDFTLTISSLQPEDFATYYCQQYASPRQTFGQGTKVEIKR
notes: also called IgG1 MOR04974
B1: the binding result in experiment [1] is listed as “no binding (tested: 10 µg/mL)”. In addition, the “EC50, inhibition of HUVEC adhesion to fibronectin” value with human α5β1 integrin was 0.4 µg/ml and 2.7 nM.
